In publication PMC12084609, “Structural insights into small-molecule agonist recognition and activation of complement receptor C3aR” (The EMBO Journal, 2025):
Substitutions are numbered along the chain they refer to. Values joined by “and” are separate entries in the source; they are usually repeats but may differ in a detail not shown here. Equal entries are not always repeated.

Key:
C3aR WT = target: T1, C3aR WT (Homo sapiens, UniProt Q16581); assay: GloSensor-based cAMP assay, WT C3aR (HEK293T); format: cell-based; details: WT, single replicates
T1 construct: expressed in transfected cells; host or cells: HEK293T
T1 sequence (Q16581 1-482): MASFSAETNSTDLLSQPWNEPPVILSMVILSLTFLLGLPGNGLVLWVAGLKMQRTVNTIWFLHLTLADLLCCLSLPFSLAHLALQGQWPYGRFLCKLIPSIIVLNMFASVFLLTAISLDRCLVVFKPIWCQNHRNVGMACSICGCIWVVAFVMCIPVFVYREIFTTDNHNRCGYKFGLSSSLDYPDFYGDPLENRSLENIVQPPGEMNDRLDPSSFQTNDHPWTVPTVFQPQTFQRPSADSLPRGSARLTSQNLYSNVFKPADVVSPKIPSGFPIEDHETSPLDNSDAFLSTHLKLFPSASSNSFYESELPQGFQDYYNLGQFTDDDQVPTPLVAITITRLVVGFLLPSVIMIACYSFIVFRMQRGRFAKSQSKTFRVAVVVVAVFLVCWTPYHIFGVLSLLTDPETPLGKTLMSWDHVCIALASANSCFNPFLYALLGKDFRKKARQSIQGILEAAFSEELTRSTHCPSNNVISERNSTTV
Description: (§1) HEK293T cells were seeded on 6-well plates (NEST) and transfected with pGlosensor™-22F plasmids (Promega) and pcDNA3.1 plasmids encoding C3aR or its mutants an with N-terminal FLAG tag. After 48 h, cells were detached with Accutase solution (Sigma-Aldrich) and washed with PBS, and resuspended in assay buffer (CO2-independent medium with 0.5 mg mL^−1D-luciferin). 100,000–200,000 cells were seeded on 96-well white bottom plates (SPL) and incubated at 37 °C for 45 min followed by 45 min incubation at room temperature. After 90 min of incubation, basal luminescence signals were recorded. In total, 25 μl of test ligand with various concentrations and 1 μM Forskolin (Sigma-Aldrich) were treated to the cells and luminescence signals were measured by Tristar 2 LB 942 multimode reader (Berthold). […] Relative luminescence unit (%) was calculated with the signal of wells treated with vehicle as 0% and the signal of wells treated with 1 μM Forskolin as 100% (DiRaddo et al, [2014]). Nonlinear regression was performed using a three-parameter logistic equation.

C3aR V103^3.33A = target: T2, C3aR V103^3.33A (Homo sapiens, UniProt Q16581, V103A); assay: GloSensor-based cAMP assay, C3aR mutant V103A; format: cell-based; details: for cAMP response (% Forskolin): single replicates
T2 construct: expressed in transfected cells; host or cells: HEK293T
T2 sequence (Q16581 1-482 V103A): T1 sequence (Q16581 1-482) with V103A
Description: as §1

C3a: anaphylatoxin C3a, natural peptide ligand of C3aR (a 77-amino acid peptide), Sigma-Aldrich
cAMP response (% Forskolin) (C3aR WT; Log[C3a (M)] -7): 13.23 % Forskolin and 9.10 % Forskolin and 12.07 % Forskolin and 14.17 % Forskolin and 11.07 % Forskolin and 5.64 % Forskolin and 5.88 % Forskolin and 10.80 % Forskolin and 18.77 % Forskolin and 9.30 % Forskolin and 7.84 % Forskolin and 11.11 % Forskolin and 5.15 % Forskolin and 8.46 % Forskolin and 12.88 % Forskolin and 7.97 % Forskolin and 4.89 % Forskolin and 13.21 % Forskolin and 8.34 % Forskolin and 9.36 % Forskolin and 10.44 % Forskolin | cAMP response (% Forskolin) (C3aR WT; Log[C3a (M)] -8): 14.46 % Forskolin and 11.08 % Forskolin and 11.75 % Forskolin and 14.58 % Forskolin and 33.21 % Forskolin and 8.44 % Forskolin and 9.26 % Forskolin and 14.67 % Forskolin and 23.44 % Forskolin and 12.45 % Forskolin and 9.97 % Forskolin and 12.70 % Forskolin and 7.51 % Forskolin and 11.02 % Forskolin and 17.00 % Forskolin and 9.96 % Forskolin and 6.25 % Forskolin and 18.05 % Forskolin and 9.98 % Forskolin and 10.68 % Forskolin and 14.94 % Forskolin | cAMP response (% Forskolin) (C3aR WT; Log[C3a (M)] -9): 89.10 % Forskolin and 91.75 % Forskolin and 55.83 % Forskolin and 67.46 % Forskolin and 97.65 % Forskolin and 80.78 % Forskolin and 91.72 % Forskolin and 89.77 % Forskolin and 62.11 % Forskolin and 58.26 % Forskolin and 94.14 % Forskolin and 92.02 % Forskolin and 88.40 % Forskolin and 88.60 % Forskolin and 88.28 % Forskolin and 92.79 % Forskolin and 82.03 % Forskolin and 98.67 % Forskolin and 72.46 % Forskolin and 83.05 % Forskolin and 92.23 % Forskolin | cAMP response (% Forskolin) (C3aR WT; Log[C3a (M)] -10): 100.49 % Forskolin and 92.00 % Forskolin and 96.47 % Forskolin and 95.65 % Forskolin and 99.73 % Forskolin and 94.19 % Forskolin and 91.55 % Forskolin and 96.59 % Forskolin and 91.09 % Forskolin and 100.53 % Forskolin and 103.10 % Forskolin and 100.18 % Forskolin and 107.39 % Forskolin and 101.42 % Forskolin and 99.05 % Forskolin and 90.86 % Forskolin and 91.78 % Forskolin and 95.04 % Forskolin and 92.70 % Forskolin and 92.81 % Forskolin and 96.03 % Forskolin | cAMP response (% Forskolin) (C3aR WT; Log[C3a (M)] -11): 101.69 % Forskolin and 104.79 % Forskolin and 99.76 % Forskolin and 97.79 % Forskolin and 100.01 % Forskolin and 95.95 % Forskolin and 100.56 % Forskolin and 98.17 % Forskolin and 98.43 % Forskolin and 104.54 % Forskolin and 103.48 % Forskolin and 99.03 % Forskolin and 107.10 % Forskolin and 101.90 % Forskolin and 98.42 % Forskolin and 97.15 % Forskolin and 94.72 % Forskolin and 92.05 % Forskolin and 96.59 % Forskolin and 94.55 % Forskolin and 98.62 % Forskolin | cAMP response (% Forskolin) (C3aR WT; Log[C3a (M)] -12): 96.64 % Forskolin and 93.74 % Forskolin and 99.06 % Forskolin and 103.59 % Forskolin and 106.40 % Forskolin and 103.79 % Forskolin and 101.64 % Forskolin and 99.02 % Forskolin and 93.95 % Forskolin and 101.82 % Forskolin and 99.95 % Forskolin and 96.51 % Forskolin and 98.16 % Forskolin and 96.67 % Forskolin and 94.02 % Forskolin and 101.30 % Forskolin and 98.69 % Forskolin and 95.26 % Forskolin and 98.94 % Forskolin and 96.13 % Forskolin and 98.01 % Forskolin | Mean Diff. of pIC50, WT vs. V103A (C3aR V103^3.33A; Dunnett's multiple comparisons test, WT minus mutant): 0.086 | cAMP response (% Forskolin) (C3aR V103^3.33A; V103A, Log[C3a (M)] -7): 16.81 % Forskolin and 17.64 % Forskolin and 16.37 % Forskolin | cAMP response (% Forskolin) (C3aR V103^3.33A; V103A, Log[C3a (M)] -8): 18.63 % Forskolin and 17.74 % Forskolin and 17.49 % Forskolin | cAMP response (% Forskolin) (C3aR V103^3.33A; V103A, Log[C3a (M)] -9): 66.34 % Forskolin and 67.98 % Forskolin and 37.55 % Forskolin | cAMP response (% Forskolin) (C3aR V103^3.33A; V103A, Log[C3a (M)] -10): 87.50 % Forskolin and 90.87 % Forskolin and 75.99 % Forskolin | cAMP response (% Forskolin) (C3aR V103^3.33A; V103A, Log[C3a (M)] -11): 101.77 % Forskolin and 100.57 % Forskolin and 97.94 % Forskolin | cAMP response (% Forskolin) (C3aR V103^3.33A; V103A, Log[C3a (M)] -12): 105.75 % Forskolin and 100.95 % Forskolin and 97.98 % Forskolin | ΔpIC50 ± SE of Diff. (C3aR V103^3.33A; V103^3.33A relative to WT C3aR): -0.09 ± 0.05 | IC50 (C3aR V103^3.33A; V103^3.33A, dose-response plot, read-out: IC50): 3.53 nM | pIC50 (Replicate) (C3aR V103^3.33A; V103^3.33A, individual replicates): 8.49 and 8.72 and 8.44 and 8.20 | pIC50 ± SEM (Mean) (C3aR V103^3.33A; V103^3.33A, mean of independent experiments): 8.46 | cAMP response (% Forskolin) (C3aR V103^3.33A; V1033.33A, Log[C3a (M)] -7): 19.41 % Forskolin and 19.52 % Forskolin and 19.42 % Forskolin and 22.72 % Forskolin | cAMP response (% Forskolin) (C3aR V103^3.33A; V1033.33A, Log[C3a (M)] -8): 24.04 % Forskolin and 22.92 % Forskolin and 25.51 % Forskolin and 44.96 % Forskolin | cAMP response (% Forskolin) (C3aR V103^3.33A; V1033.33A, Log[C3a (M)] -9): 89.16 % Forskolin and 71.89 % Forskolin and 87.77 % Forskolin and 103.75 % Forskolin | cAMP response (% Forskolin) (C3aR V103^3.33A; V1033.33A, Log[C3a (M)] -10): 100.58 % Forskolin and 94.90 % Forskolin and 95.96 % Forskolin and 103.23 % Forskolin | cAMP response (% Forskolin) (C3aR V103^3.33A; V1033.33A, Log[C3a (M)] -11): 100.23 % Forskolin and 96.38 % Forskolin and 92.81 % Forskolin and 102.90 % Forskolin | cAMP response (% Forskolin) (C3aR V103^3.33A; V1033.33A, Log[C3a (M)] -12): 97.59 % Forskolin and 96.90 % Forskolin and 93.29 % Forskolin and 103.97 % Forskolin
